Data: the nanobody polyreactivity screen of Harvey et al. (2022)

Assay: yeast display, Sf9 membrane polyspecificity reagent, FACS + sequencing; frameworks hold sequencing errors
How it was run: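 Using colony PCR, genes from sorted yeast display clones were amplified, then sequenced on MiSeq at 2 × 250 and filtered by CDR length. The clones had been stained with 10% biotinylated, detergent-solubilized Sf9 membrane reagent for 1 hour at 4 °C and sorted by FACS into low and high (top ~1%) gates on anti-HA and streptavidin fluorescence. Polyreactivity labels come from the gate of origin.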

Row | Sequence | polyreactivity (PSR sort gate)
1 | QVQLVESGGGLVQAGGSLRLSCAASGFTFRDYAMGWYRQAPGKERELVAVISDSGGRTYYADSVKGRFTISRDNAKNTVYLQMNSLKPEDTAVYYCAARGYRSGGGYNYWGQGTQVTVSS | high polyreactivity
2 | QVQLVESGGGLVQAGGSLRLSCAASGFTFRFYVMGWYRQAPGKERELVAAISSGGGSTYYADSVKGRFTISRDNAKNTVYLQMNSLKPEDTAVYYCNALKVSFLTITKYEYWGQGTQVTVSS | high polyreactivity
3 | QVQLVESGGGLVQAGGSLRLSCAASGFTFRGNAMGWYRQAPGKERELVAAITWNGGSTYYADSVKGRFTISRDNAKNTVYLQMNSLKPEDTAVYYCAAQYGKKRQPRFNYWGQGTQVTVSS | high polyreactivity
4 | QVQLVESGGGLVQAGGSLRLSCAASGFTFRGYAMGWYRQAPGIERELVATISRRAASTYYADTVKGRFTISRDNAKNTVYLLMNSLKPEDTAVYYCAKVNRYDDDRDGFGYWGHGTQVTVSS | high polyreactivity
5 | QVQLVESGGGLVQAGGSLRLSCAASGFTFRGYAMGWYRQAPGKERELVASITYRGGSTYYADSVKGRFTISRDNAKNTVYLQMNSLKPEDTADYYCNAGFGGRRRQDAFIGTSIYDYWGQGTQVTVSS | low polyreactivity
6 | QVQLVESGGGLVQAGGSLRLSCAASGFTFRHNVMGWYRQAPGKERELVATITWSGGRTSYADSVKGRFTISRDNAKNTVYLQMKSLKPEDTAVYYCAARFFSYSQYAYNYWGQGTQVTVSS | high polyreactivity
7 | QVQLVESGGGLVQAGGSLRLSCAASGFTFRIYAMGWYRQAPGKERELVAAITWSGGSTSYADSVKGRFTISRDNAKNTVYLQMNSLKPEDTAVYYCAAETKYSGAYPYDYWGQGTQVTVSS | high polyreactivity
8 | QVQLVESGGGLVQAGGSLRLSCAASGFTFRKYVMGWYRQAPGKERELVAGISRSGSRTYYADSVKGRFTISRDNAKNTVYLQMNSLKPEDTAVYYCAASRYGKNGKYHYWGQGTQVTVSS | high polyreactivity
9 | QVQLVESGGGLVQAGGSLRLSCAASGFTFRLNAMGWYRQAPGKERELVAAITRSGGNTYYADSVKGRFTISRDNAKNTVYLQMNSLKPEDTAVYYCAVRQLDRRSPKYNYWGQGTQVTVSS | high polyreactivity
10 | QVQLVESGGGLVQAGGSLRLSCAASGFTFRNNAMGWYRQAPGKDRELVAAITARGGSTYYADSVKGRFTISRDNAKNTVYLQMNSLKPEDTAVYYCATDDYPWGRHPWYAGYDSWGQGTQVTVSS | low polyreactivity
11 | QVQLVESGGGLVQAGGSLRLSCAASGFTFRNYAMGWYRKAPGKERELVATIDRGTTSTYYADSVKGRFTISRDNAKNTVYLQMNSLKPEDTAVYYCAARAWRYGYGYWGQGTQVTVSS | high polyreactivity
12 | QVQLVESGGGLVQAGGSLRLSCAASGFTFRQNAKGWYRQAPGKERELVAVITKSAGSTYYADSVKGRFTISRDNAKNTVYLQMNSLKPEDTAVFYCNKRQRFVSSFRRSQGIGWEDDYWGQGTQVTVSS | low polyreactivity
13 | QVQLVESGGGLVQAGGSLRLSCAASGFTFRQNAMGWYRQAPRKERELVAAISSGGRTKYADSVKGRFTISRDNANNTVYLHMNSLKPEDTALYYCAADKRVYTQLNDSWGQGTQVTVSS | high polyreactivity
14 | QVQLVESGGGLVQAGGSLRLSCAASGFTFRRNAMGWYRQAPGKEWEFVAAITGRGTGTYYADSVKGRFTISRDNAKNTVYLQMYILKPEDTAGYYCNDDPVRYLFNRYDYWGQGTQVTVSS | high polyreactivity
15 | QVQLVESGGGLVQAGGSLRLSCAASGFTFRRYAMGRYRQAPGKERELVAAISRSTGSTYYADSVKGRFSLSRDNAKNSVYLQMNSLKPEDTAVFYCNVAGSARVNTLVLSYEYWGQGSQVTVSS | high polyreactivity
16 | QVQLVESGGGLVQAGGSLRLSCAASGFTFRRYVMGWYRQAPGKERELVAAISSGGRTNYADSVKGRFTISRYNAKNTVYLQMNSLKPEDTAVYYCGYLDRYHHLRYWGQGTQVTVSS | high polyreactivity
17 | QVQLVESGGGLVQAGGSLRLSCAASGFTFRSNAMGWSRQAPGKERELVAAISYSGGDTYYADSVKGRFTISRDNAKNTVYLQMNSLKPEDTAVYYCAADDPASPLGEYWGQGTQVSVSS | low polyreactivity
18 | QVQLVESGGGLVQAGGSLRLSCAASGFTFRSYAMGLYRQAPGKEREFVAAINGRSGSTYADSVKGRFTISRDNAKNTVYLQMISLKPEDTAVYYCAARVRRGSTQAQFYYWGQGTQVTVSS | high polyreactivity
19 | QVQLVESGGGLVQAGGSLRLSCAASGFTFRSYTMGWYRQAPGKERELVASIRYGGGSTYYADSVKGRFTISRDNAKNTVYLQMNSLKPEDTAVYYCSAESAWTSPYDYWGQGTQVTVSS | high polyreactivity
20 | QVQLVESGGGLVQAGGSLRLSCAASGFTFRTNAMGWYRQAPGKEREFVATITRRGGSTYYADSVKGRFTISRDNAKKTVYLQLNSLKPEDTAVYYCNAVFSSQEYEYWGQGTQVTVSS | high polyreactivity
21 | QVQLVESGGGLVQAGGSLRLSCAASGFTFRVYAMGWYRQAPGKERELVASITWSGASTYYADSVKGRFTISRDNAKNTVYLQMNSLKPEDTAVYYCAAKYSDYQYGRYYYWGQGTQVTVSS | high polyreactivity
22 | QVQLVESGGGLVQAGGSLRLSCAASGFTFRWYAIGWYSQAPGKEREFVATISTRGGNTYYADSVKGRFTISRDNAKNTVYLQMNSLKPEDTAVYYSAAVGYAAYHRMDYWGQGTQVNVSS | high polyreactivity

Row | Sequence | polyreactivity (PSR sort gate)
23 | QVQLVESGGGLVQAGGSLRLSCAASGFTFRWYDMGWYRQAPGKERELVAAIDASDGSTYYADSVKGRFTISRDNAKNTVYLQMNSLKPEDTAVYYCAADSYYRYYWGQGTQVTVSS | high polyreactivity
24 | QVQLVESGGGLVQAGGSLRLSCAASGFTFRWYDMGWYRQAPGKERELVAAITWRGDNTYYADSVKGRFTISRDNAKNTVYLQMNSLKPEDTAVYYCAAAWPTFISDLSGVDYWGQGTQVTVSS | low polyreactivity
25 | QVQLVESGGGLVQAGGSLRLSCAASGFTFRYNAMGWYRQAPGKERELVAAITNGGSTYADSVKGRFTISRDNAKNTVYLQMNSLKPEDTAVYYCAADYFVLTYYLWSYSPYKSFYYWGQGTQVTLSS | low polyreactivity
26 | QVQLVESGGGLVQAGGSLRLSCAASGFTFRYNAMGWYRQAPGKERELVAAITSDVSTNYADSVKGRFTISRDNAKNTVYLEMNSLKAEDTAVYYCAKGTAKRIVGRSPGNTYEDHYWGQGTEVTVSS | low polyreactivity
27 | QVQLVESGGGLVQAGGSLRLSCAASGFTFRYYAMGWYRQAPGKEREFVAAIRRSGANTYYADSVKGRFTISRDNAKNTVYLQMNSLKPEDTAVYYCGTRLRGSGRLYNYWGQGTQVTVSS | high polyreactivity
28 | QVQLVESGGGLVQAGGSLRLSCAASGFTFRYYAMGWYRQAPGKEREFVAAISWSGGSTYYADSVKGRFTISRDNAKNTVYLQMNSLKPEDTAVYYCNRVPRARKGDYWGQGTQVTVSS | high polyreactivity
29 | QVQLVESGGGLVQAGGSLRLSCAASGFTFRYYAMGWYRQAPGKEREFVAAITRSGGRTYYADSVKGRFTISRDNAKNTVYLQMNSLKPEDTAVYYCAARYVSRFDWGQGTQVTVSS | high polyreactivity
30 | QVQLVESGGGLVQAGGSLRLSCAASGFTFRYYAMGWYRQAPGKERELVAAISWSGASTYYADSVKGRFTISRDNAKNTVYLQMNSLKPEDTAVYYCAADIPGTYYYWGQGTEVTVSS | high polyreactivity
31 | QVQLVESGGGLVQAGGSLRLSCAASGFTFRYYAMGWYRQAPGKERELVAAITRSGGSTSYADSVKGRFTISRDNAKNNVYLQMNSLKPEDTAVYYCNTSTSRVPGNGDYWGQGTQVTVSS | high polyreactivity
32 | QVQLVESGGGLVQAGGSLRLSCAASGFTFRYYAMGWYRQAPGKERELVAAITSGDSTYYADSVKGRFTISRDKAKNTVYLQMNSLKPEDTAVYYCAAYSWLYEGYEYWGQGTQVTVSS | high polyreactivity
33 | QVQLVESGGGLVQAGGSLRLSCAASGFTFRYYAMGWYRQAPGKERELVASISRSGSGTFYADSVKGRFTISRDNAKNTVYLQMNSLKPEDTAVYYCNAVSAAKIPFQKYGYWGQGTQVTVSS | high polyreactivity
34 | QVQLVESGGGLVQAGGSLRLSCAASGFTFRYYAMGWYRQAPGKERELVATISRGGSTNYVDSVKGRFTISRDNAKNTVYLQMNRLKPEDPAVYSCNARYKGWWVSTDSSTDDYWGQGTQVTVSS | high polyreactivity
35 | QVQLVESGGGLVQAGGSLRLSCAASGFTFRYYAMGWYRQAPGKERELVATITTSGGSTYYADSVKGRFTISRDNAKNTVYVQMNSLKPEDTAVYYCAADYYYGRRFRSWRDFNYWGQGTQVTVSS | high polyreactivity
36 | QVQLVESGGGLVQAGGSLRLSCAASGFTFRYYAMGWYSQAPGKERELVAAITRSGGSTYYADSVKGRFTISRDNAKNTVYLQMNSLKPDDTGVYYCAARGHYRDGDEYWGQGTEVTVSS | high polyreactivity
37 | QVQLVESGGGLVQAGGSLRLSCAASGFTFRYYAMVWYRQAPGKERELVAAITSGDSTYYADSVKGLFTISRDNAKNTVYLQMNSLKPEDTAVYYCAAYSWLFEGYEYWGQGTIVTVSS | high polyreactivity
38 | QVQLVESGGGLVQAGGSLRLSCAASGFTFRYYTLGWYRQAPGKERELVAVMRSTGSTNYADSVKGRFTISRDNAKNTVYLQMNSLKAEDTAVYYCNAARGWYNPPKYGSIGFDYWGQGTQVTVSS | high polyreactivity
39 | QVQLVESGGGLVQAGGSLRLSCAASGFTFRYYVMGWSRQAPGKESELVAAICWSGGSTYYADSVKVRFTISRDNAKNTVYLQMNRLKPEDTAFYYCNARRYFRTSQQPLYDYWGQGTQVTVSS | high polyreactivity
40 | QVQLVESGGGLVQAGGSLRLSCAASGFTFSAYAMGWYRQAPGKERELVVAISLSGGSTYYADSVKGRFTISRDNAKNTVYLQMNSLKPEDTAVYYCNADSYWHWGEWLYAPYDYWGQGTQVTVSS | low polyreactivity
41 | QVQLVESGGGLVQAGGSLRLSCAASGFTFSDNAMGWYRQAPGKERELVAASSRSGGRTYYADSVKGRFTISRDNAKNTVYLQMNSLKPEDTAVYYCNARRLSTGFDRYDYWGQGTQVTVSS | high polyreactivity
42 | QVQLVESGGGLVQAGGSLRLSCAASGFTFSDYAMGWYRQAPGKERELVAAISSSGGSTYYADSVKGRFTISRDNAKNTVYLQMNSLKPEDNAVYYCAASSYSFRYRYDTWWYYYWGQGTQVTVSS | high polyreactivity
43 | QVQLVESGGGLVQAGGSLRLSCAASGFTFSFYAMGWYRQAPGKERELVAGISKRGGSTYYADSVKGRFTISRDNAKNTVYLQMNSLKPEDTAVYYCAKRSSLYRSLVDYWGQGTQVTVSS | high polyreactivity
